Experimental data: patent US20250388664A1 (BIOARCTIC, published 2025)

How the values were obtained:
Aβ1-40 monomer = molecular target: T1, Aβ1-40 monomer (UniProt P05067 672-711); assay: inhibition ELISA, antigen titrated in solution, AβpE3-40 coat
T1 construct: range 1-40 (Aβ numbering)
Protocol: (§1) For binding to Aβ1-40 and AβpE11-40, the positive control 4G8 (Covance #SIG-39320, epitope: amino acids 17-24 of Aβ) was included. The recombinant antibodies were incubated at a fixed concentration (0.05 μg/ml) with titrating concentrations of the different Aβ antigens. After incubation for 45 min at 900 rpm to reach equilibrium, the antibody-Aβ samples were added to a blocked and washed ELISA plate with an AβpE3-40 coat (0.5 μM). The samples were incubated on the plate for 25 min without shaking followed by washing, incubation with detection antibody, another washing step and finally incubation with alkaline phosphatase substrate.

AβpE11-40 monomer = molecular target: T2, AβpE11-40 monomer (UniProt P05067 682-711, pyroglutamate at position 11 (N-terminal residue)); assay: as above
T2 construct: range 11-40 (Aβ numbering)
T2 peptide (looked up): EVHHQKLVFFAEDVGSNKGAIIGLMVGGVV
Protocol: as §1

AβpE3-42 protofibrils [1] = molecular target: T3, AβpE3-42 protofibrils (UniProt P05067 674-713, pyroglutamate at position 3 (N-terminal residue)); assay: as above
T3 construct: range 3-42 (Aβ numbering); Soluble aggregates made from AβpE3-42 peptide, purified in the void peak of SEC; also called AβpE3-42 PF
Protocol: as §1

AβpE3-40 monomer [2] = molecular target: T4, AβpE3-40 monomer (UniProt P05067 674-711, pyroglutamate at position 3 (N-terminal residue)); assay: as above
T4 construct: range 3-40 (Aβ numbering); Synthetic peptide (Bachem/Anaspec), verified monomeric by SEC; also called monomeric AβpE3-40
Protocol: as §1

Aβ1-28 monomer = molecular target: T5, Aβ1-28 monomer (UniProt P05067 672-699); assay: SPR, antibody immobilised
T5 construct: range 1-28 (Aβ numbering)
Protocol: Affinity and specificity evaluation and KD determination by surface plasmon resonance: Binding interactions between antigens and antibodies were evaluated by SPR using a Biacore 8K instrument (Cytiva) according to standard procedures. […] Additionally, the specificity towards different N-truncated forms of Aβ (Aβ2-28, Aβ3-28, Aβ4-28 and AβpE11-28 monomers) was evaluated.
(§2) Single cycle kinetics with the antibodies immobilized on a CM5 chip was used to measure the binding of the antibodies to the different monomers (AβpE3-40, AβpE11-28, Aβ1-28, Aβ2-28, Aβ3-28 and Aβ4-28). For the measurements, 5 μg/ml of analyte antibody was immobilized on the chip. […] Regeneration of the surface between cycles was done by injecting 30 μl 3 M MgCl₂. The binding data was fitted to a 1:1 interaction model.
(§3) In all SPR experiments, 1×HBS-EP+ (Cytiva, cat. no. BR100669) was used as running buffer and to dilute antibodies and target antigens. Experiments were performed at 25° C.

AβpE3-42 protofibrils [3] = molecular target: T3, AβpE3-42 protofibrils; assay: SPR, protofibrils immobilised, antibody injected, 1:1 fit, apparent; binding to AβpE3-42 protofibrils (not monomer); KD in pM
Protocol: (§4) Single cycle kinetics was also used to measure binding of the antibodies to AβpE3-42 protofibrils. […] For binding to AβpE3-42 protofibrils, the antibodies were injected over the chip using a 3-fold dilution series in five steps starting at 700 nM, using 2 min injection of every antibody concentration and a 60 min dissociation time. Regeneration of the surface between cycles was done by injecting 30 μl 10 mM glycine-HCl pH 1.7. The binding data was fitted to a 1:1 interaction model.
as §3

Aβ4-28 monomer = molecular target: T6, Aβ4-28 monomer (UniProt P05067 675-699); assay: SPR, antibody immobilised, monomer injected, 1:1 fit
T6 construct: range 4-28 (Aβ numbering)
Protocol: as §2, §3

AβpE3-40 monomer [4] = molecular target: T4, AβpE3-40 monomer; assay: as above
Protocol: as §2, §3

AβpE3-42 protofibrils [5] = molecular target: T3, AβpE3-42 protofibrils; assay: SPR, protofibrils immobilised, antibody injected, 1:1 fit, apparent
Protocol: as §4, §3

Aβ2-28 monomer = molecular target: T7, Aβ2-28 monomer (UniProt P05067 673-699); assay: SPR, antibody immobilised
T7 construct: range 2-28 (Aβ numbering)
Protocol: as §2, §3

AβpE11-28 monomer = molecular target: T8, AβpE11-28 monomer (UniProt P05067 682-699, pyroglutamate at position 11 (N-terminal residue)); assay: SPR, antibody immobilised
T8 construct: range 11-28 (Aβ numbering)
T8 peptide (looked up): EVHHQKLVFFAEDVGSNK
Protocol: as §2, §3

Aβ3-28 monomer = molecular target: T9, Aβ3-28 monomer (UniProt P05067 674-699); assay: SPR, antibody immobilised
T9 construct: range 3-28 (Aβ numbering)
Protocol: as §2, §3

Aβ1-42 monomer = molecular target: T10, Aβ1-42 monomer (UniProt P05067 672-713); assay: ELISA: Aβ monomer captured on a polyclonal anti-Aβ42 coat, hybridoma supernatant diluted 1/243, anti-mouse IgG-HRP
T10 construct: range 1-42 (Aβ numbering)

Aβ2-42 monomer = molecular target: T11, Aβ2-42 monomer (UniProt P05067 673-713); assay: as above
T11 construct: range 2-42 (Aβ numbering)
T11 sequence (P05067 673-713): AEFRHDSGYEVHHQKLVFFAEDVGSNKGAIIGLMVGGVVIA

T6 sequence (P05067 675-699): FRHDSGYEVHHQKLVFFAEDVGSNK
T3 sequence (P05067 674-713): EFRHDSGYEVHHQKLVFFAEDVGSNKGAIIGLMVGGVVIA
T9 sequence (P05067 674-699): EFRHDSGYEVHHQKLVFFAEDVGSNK
T10 sequence (P05067 672-713): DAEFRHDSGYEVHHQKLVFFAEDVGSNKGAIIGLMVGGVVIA
T5 sequence (P05067 672-699): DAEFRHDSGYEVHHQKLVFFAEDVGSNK
T7 sequence (P05067 673-699): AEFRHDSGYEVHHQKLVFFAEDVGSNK

IC50 (Aβ1-40 monomer): > 5000 nM | IC50 (AβpE11-40 monomer): > 5000 nM | IC50 (AβpE3-42 protofibrils [1]): 12.8 nM | IC50 (AβpE3-40 monomer [2]): 2.85 nM | binding result (Aβ1-28 monomer): no binding (tested: 2500 nM) | Kd (AβpE3-42 protofibrils [3]): 0.031 nM | Kd (Aβ4-28 monomer): 8310 nM | koff (Aβ4-28 monomer): 0.454 s⁻¹ | kon (Aβ4-28 monomer): 102000 M⁻¹ s⁻¹ | Kd (AβpE3-40 monomer [4]): 2.3 nM | koff (AβpE3-40 monomer [4]): 0.000122 s⁻¹ | kon (AβpE3-40 monomer [4]): 53200 M⁻¹ s⁻¹ | koff (AβpE3-42 protofibrils [5]): 2.29e-06 s⁻¹ | kon (AβpE3-42 protofibrils [5]): 78200 M⁻¹ s⁻¹ | binding result (Aβ2-28 monomer): no binding (tested: 2500 nM) | binding result (AβpE11-28 monomer): no binding (tested: 2500 nM) | binding result (Aβ3-28 monomer): no binding (tested: 2500 nM) | binding result (Aβ1-42 monomer): no binding | binding result (Aβ2-42 monomer): no binding
B1: Pyr7.1 (antibody, V domains shown)
VH: KVQLQQSGPELVKPGTSIKMSCKTSGYSFTGYTLNWVKQSPGKNPEWIGLINPYNGITTYNPKFMGKATLTVDKSSSTAYMELLSLTSEDSAVYYCSREGNWEGVYWGQGTLVTVSA
VL: not shown
notes: Murine anti-AβpE3 antibody; also called recombinant antibody Pyr7.1; hybridoma clone Pyr7.1
